The subject of data set [1] is C4. Kind of data set: C4 cleavage by MASP fragments. The class given is biochemical, human. The conditions noted are these: for C4 kcat: 37° C., pH 7.4, averages of 2 to 4 experiments, standard errors. The method, then:
(§1) C2, C3, C3(NH3), C4 cleavage—Serial dilutions of MASP-1 and MASP-2 fragments ranging between concentrations of 1 μM and 10 pM were incubated at 37° C. in 20 mM HEPES, 140 mM NaCl, pH 7.4 with C2, C3, C3(NH3) or C4 at typical concentrations of 0.5-1 μM. The cleavage was followed by SDS-PAGE under reducing conditions. Desirable concentrations of the MASP fragments for further detailed kinetic analysis were chosen to be where half of the protein substrates were hydrolyzed during the first 20 minutes of incubation. The protein substrates C2, C3, C3(NH3) or C4 were then incubated with the selected concentrations of the MASP fragments at 37° C. in 20 mM HEPES, 140 mM NaCl, pH 7.4. Typically 11-13 samples were taken at varying time periods but always within 50 minutes from the beginning of the reaction. Cleavages rates were quantified by measuring the diminution of the cleaved chain visualized by Coomassie stained SDS-PAGs using a GEL DOC 1000 instrument and Molecular Analyst Software for densitometric calculations (Bio-Rad, Hercules, Calif., USA). The reactions were assumed to be of the Michaelis-Menten type. In the case of C3 and C3(NH3) cleavage a further reasonable assumption of KM>>[substrate] was made. The constants KM, kcat and KM/kcat were estimated by unbiased non-linear regression methods regressing the data on the following equations: t=([S0]−[S]+KMln([S0]/[S]))/(kcat[E0]) or in the case of C3 and C3(NH3) cleavage on [S]=[S0]exp(−t[E0]kcat/KM).

For data set [2], the target named is T1, C2 (Homo sapiens, UniProt P06681).
T1 construct: from tissue
T1 sequence (P06681 21-752): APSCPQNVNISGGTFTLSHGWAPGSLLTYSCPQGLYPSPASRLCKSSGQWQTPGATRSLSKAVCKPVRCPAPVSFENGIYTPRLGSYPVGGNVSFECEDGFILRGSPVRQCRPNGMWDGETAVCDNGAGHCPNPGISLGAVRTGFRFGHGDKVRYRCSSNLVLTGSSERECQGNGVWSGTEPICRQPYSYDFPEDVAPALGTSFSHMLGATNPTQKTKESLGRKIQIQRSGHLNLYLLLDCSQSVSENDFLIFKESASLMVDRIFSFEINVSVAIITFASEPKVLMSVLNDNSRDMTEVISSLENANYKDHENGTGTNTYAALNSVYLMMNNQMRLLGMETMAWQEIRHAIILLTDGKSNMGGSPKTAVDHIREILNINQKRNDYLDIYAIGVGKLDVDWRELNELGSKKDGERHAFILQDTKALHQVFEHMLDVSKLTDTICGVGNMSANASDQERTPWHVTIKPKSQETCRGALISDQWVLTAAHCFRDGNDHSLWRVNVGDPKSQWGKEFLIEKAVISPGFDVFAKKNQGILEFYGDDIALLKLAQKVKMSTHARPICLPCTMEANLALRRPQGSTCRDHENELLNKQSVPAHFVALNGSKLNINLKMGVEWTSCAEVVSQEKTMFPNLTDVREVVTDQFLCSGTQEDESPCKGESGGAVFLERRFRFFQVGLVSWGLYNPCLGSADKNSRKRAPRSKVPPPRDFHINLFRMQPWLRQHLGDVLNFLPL
As to the kind of experiment: C2 cleavage by MASP fragments. The settings on record: 37° C., pH 7.4; averages of 2 to 4 experiments, standard errors. The class given is biochemical. On the procedure:
as §1

Data set [3] addresses T2, C1-inhibitor (Homo sapiens, UniProt P05155).
T2 construct: Purification of C1-inh and Alpha-2-Macroglobulin; from tissue
T2 sequence (P05155 23-500): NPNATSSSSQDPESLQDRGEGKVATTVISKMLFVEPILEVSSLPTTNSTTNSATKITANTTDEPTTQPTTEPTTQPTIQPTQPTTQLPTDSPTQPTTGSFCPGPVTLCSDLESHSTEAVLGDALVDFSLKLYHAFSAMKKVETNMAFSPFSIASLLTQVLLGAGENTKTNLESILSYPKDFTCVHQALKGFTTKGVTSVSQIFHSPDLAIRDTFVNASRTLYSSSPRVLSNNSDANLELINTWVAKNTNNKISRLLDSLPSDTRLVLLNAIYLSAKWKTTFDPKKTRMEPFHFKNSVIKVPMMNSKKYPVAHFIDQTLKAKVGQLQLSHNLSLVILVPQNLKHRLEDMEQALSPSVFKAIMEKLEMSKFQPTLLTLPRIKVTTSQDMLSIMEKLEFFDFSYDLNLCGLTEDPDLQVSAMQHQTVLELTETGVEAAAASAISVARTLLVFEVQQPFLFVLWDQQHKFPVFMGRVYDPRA
Kind of data set: Rate of SDS stable complex formation of 125I-labelled MASP fragments with C1-inhibitor. The format is biochemical. The method, then: To assess the rate of SDS stable complex formation between the MASP-1 and MASP-2 CCP1-CCP2-SP fragments and C1-inhibitor, the ^125I-labelled MASP fragments at concentrations ranging between 30-100 nM were incubated with 100-350 nM C1-inhibitor at 37° C. in 20 mM HEPES, 140 mM NaCl, pH 7.4 for 40 minutes. Typically 11-13 samples were taken at varying time periods. The reactions were stopped by reducing sample buffer containing 0.125 M Tris, 4.8% SDS, 8 M urea 20% glycerol, 720 mM mercaptoethanol, 0.02% bromophenol blue, pH6.8. The samples were further incubated at 37° C. for 30 minutes and run on reducing SDS-PAGE. Cleavages rates were visualized by means of autoradiography and the diminution of the reacted MASP chain was quantified using a GEL DOC 1000 instrument and Molecular Analyst Software for densitometric calculations (Bio-Rad, Hercules, Calif., USA). The kinetic constants were calculated assuming irreversible inhibition proceeded by reversible enzyme-inhibitor complex formation. Using steady-state approximation and neglecting the starting enzyme concentration compared to the starting inhibitor concentration ([I0]>>[E0]) the data was regressed on the following equation using non-linear regression methods: [E]=[E0]exp(−kobst); kobs=k2[I0]/(Ki+[I0]), where kobs is the observed pseudo-first order rate of reaction, k2 is the rate of irreversible enzyme-inhibitor complex formation and Ki is the inhibitory constant.

Data set [4] in a line: Differential scanning calorimetry of C1r fragments. The format is physicochemical. The settings on record: 20 mM Tris pH 8.3, 145 mM NaCl, 0.1 mg/ml, 1° C./min. The method, then: Calorimetric measurements were performed on a VP-DSC (Microcal Inc, Northampton, Mass.) differential scanning calorimeter. Denaturation curves were recorded between 10 and 80° C. at a pressure of 2.5 atm, using a scanning rate of 1° C./min. The protein concentration was set to 0.1 mg/ml. Samples were dialyzed against 20 mM Tris pH 8.3 145 mM NaCl, and the dialysis buffer was used as a reference. Heat capacities were calculated as outlined by Privalov (16).

For data set [5], the target named is T3, C3(NH3) (Homo sapiens, UniProt P01024).
T3 construct: was isolated from fresh human serum; from tissue; host or cells: fresh human serum, then amidolysis with ammonium hydrogen carbonate
Kind of data set: Cleavage of dead C3, C3(NH3), by MASP fragments, SDS-PAGE densitometry. The format is biochemical. The conditions noted are these: control experiment. The method, then: Amidolysis of C3 The intact thiol ester bond in ‘live’ C3 was cleaved using ammonium salt as the nucleophile to obtain ‘dead’ C3(NH3), according to Soames and Sim (1997) with modifications. C3 was incubated with a final concentration of 0.2 M ammonium hydrogen carbonate for 90 min at 37° C., making sure that the final pH of the reaction was above 8.0. At the end of the incubation, the reaction was collected with a brief centrifugation (5 min, 8000 g, RT) and dialyzed against 20 mM HEPES, 140 mM NaCl, pH 7.4.
C2, C3, C3(NH3), C4 cleavage—Serial dilutions of MASP-1 and MASP-2 fragments ranging between concentrations of 1 μM and 10 pM were incubated at 37° C. in 20 mM HEPES, 140 mM NaCl, pH 7.4 with C2, C3, C3(NH3) or C4 at typical concentrations of 0.5-1 μM. The cleavage was followed by SDS-PAGE under reducing conditions. Desirable concentrations of the MASP fragments for further detailed kinetic analysis were chosen to be where half of the protein substrates were hydrolyzed during the first 20 minutes of incubation. […] Cleavages rates were quantified by measuring the diminution of the cleaved chain visualized by Coomassie stained SDS-PAGs using a GEL DOC 1000 instrument and Molecular Analyst Software for densitometric calculations (Bio-Rad, Hercules, Calif., USA). […]

The target of data set [6] is T4, live C3 (Homo sapiens, UniProt P01024).
T4 construct: was isolated from fresh human serum; from tissue; host or cells: fresh human serum
As to the kind of experiment: Cleavage of live C3 by MASP fragments, SDS-PAGE densitometry. The class given is biochemical. The conditions noted are these: control experiment. The method, then: as §1, with “The constants KM, kcat and KM/kcat were estimated by unbiased non-linear regression methods regressing the data on the following equations: t=([S0]−[S]+KMln([S0]/[S]))/(kcat[E0]) or in the case of C3 and C3(NH3) cleavage on [S]=[S0]exp(−t[E0]kcat/KM).” left out

The values below come from patent publication US8173397B2, “Folded recombinant catalytic fragments of multidomain serine proteases, preparation and uses thereof” (TargetEx Kft., priority 2002, dated 2012).

T3 sequence (P01024 672-1663 limits assumed): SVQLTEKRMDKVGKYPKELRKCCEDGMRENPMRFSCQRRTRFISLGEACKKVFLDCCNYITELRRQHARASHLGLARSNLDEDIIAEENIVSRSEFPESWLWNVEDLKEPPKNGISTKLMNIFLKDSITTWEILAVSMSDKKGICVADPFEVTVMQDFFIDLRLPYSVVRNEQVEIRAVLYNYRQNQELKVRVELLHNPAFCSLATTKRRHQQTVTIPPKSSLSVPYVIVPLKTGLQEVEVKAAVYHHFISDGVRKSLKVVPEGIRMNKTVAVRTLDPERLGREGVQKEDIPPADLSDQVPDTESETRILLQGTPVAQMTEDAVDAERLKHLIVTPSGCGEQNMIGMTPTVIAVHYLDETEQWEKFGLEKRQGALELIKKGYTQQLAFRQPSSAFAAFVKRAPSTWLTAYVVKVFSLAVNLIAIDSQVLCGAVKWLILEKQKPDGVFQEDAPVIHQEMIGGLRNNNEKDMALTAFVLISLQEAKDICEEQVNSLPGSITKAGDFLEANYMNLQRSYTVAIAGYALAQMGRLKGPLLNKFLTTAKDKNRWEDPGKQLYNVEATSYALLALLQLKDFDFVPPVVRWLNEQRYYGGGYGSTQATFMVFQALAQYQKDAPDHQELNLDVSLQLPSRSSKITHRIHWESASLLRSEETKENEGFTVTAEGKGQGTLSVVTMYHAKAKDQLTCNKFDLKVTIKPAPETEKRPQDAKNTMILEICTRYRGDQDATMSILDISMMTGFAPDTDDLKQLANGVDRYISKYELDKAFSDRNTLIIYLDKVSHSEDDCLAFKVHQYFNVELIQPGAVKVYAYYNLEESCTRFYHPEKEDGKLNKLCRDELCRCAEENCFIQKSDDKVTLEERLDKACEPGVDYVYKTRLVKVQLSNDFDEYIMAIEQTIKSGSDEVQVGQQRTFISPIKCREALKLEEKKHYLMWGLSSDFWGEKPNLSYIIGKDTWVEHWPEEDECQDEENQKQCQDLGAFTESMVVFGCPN
T3 sequence (P01024 23-667 partner limits assumed): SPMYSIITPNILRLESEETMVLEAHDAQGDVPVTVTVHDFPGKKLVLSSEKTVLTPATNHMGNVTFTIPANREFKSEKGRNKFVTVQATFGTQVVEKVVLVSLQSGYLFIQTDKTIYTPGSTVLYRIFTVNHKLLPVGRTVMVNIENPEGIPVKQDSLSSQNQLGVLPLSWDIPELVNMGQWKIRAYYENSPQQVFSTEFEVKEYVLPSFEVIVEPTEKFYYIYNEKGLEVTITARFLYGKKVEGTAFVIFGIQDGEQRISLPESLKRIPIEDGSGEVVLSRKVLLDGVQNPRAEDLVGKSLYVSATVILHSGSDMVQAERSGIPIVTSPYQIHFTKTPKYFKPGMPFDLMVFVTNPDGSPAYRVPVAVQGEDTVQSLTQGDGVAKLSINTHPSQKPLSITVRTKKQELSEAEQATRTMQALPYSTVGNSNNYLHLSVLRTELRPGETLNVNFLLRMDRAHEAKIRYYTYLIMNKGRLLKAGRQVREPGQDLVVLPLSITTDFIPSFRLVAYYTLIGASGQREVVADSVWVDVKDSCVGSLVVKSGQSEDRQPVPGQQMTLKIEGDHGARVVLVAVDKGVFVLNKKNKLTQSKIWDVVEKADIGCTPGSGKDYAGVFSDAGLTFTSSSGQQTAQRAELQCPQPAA
T4 sequence (P01024 672-1663 limits assumed): as the sequence (P01024 672-1663 limits assumed) above
T4 sequence (P01024 23-667 partner limits assumed): as the sequence (P01024 23-667 partner limits assumed) above

B1: MASP-2 CCP-SP: E. coli-expressed, refolded human MASP-2 CCP2-SP fragment, Ala-Ser-Met-Thr tag followed by Ile363, ending Phe686 (protein)
chain 1: ASMTIVDCGPPDDLPSGRVEYITGPGVTTYKAVIQYSCEETFYTMKVNDGKYVCEADGFWTSSKGEKSLPVCEPVCGLSARTTGGR
chain 2: IYGGQKAKPGDFPWQVLILGGTTAAGALLYDNWVLTAAHAVYEQKHDASALDIRMGTLKRLSPHYTQAWSEAVFIHEGYTHDAGFDNDIALIKLNNKVVINSNITPICLPRKEAESFMRTDDIGTASGWGLTQRGFLARNLMYVDIPIVDHQKCTAAYEKPPYPRGSVTANMLCAGLESGGKDSCRGDSGGALVFLDSETERWFVGGIVSWGSMNCGEAGQYGVYTKVINYIPWIENIISDF
In data set [1], B1 displayed a C4 kcat of 2.0 ± 1.0 s⁻¹. In addition, in data set [1] (relative to MASP-2 SP domain alone), the “increase in the kcat/KM value of C4 cleavage by presence of the CCP2 domain” value is on record as 44 fold. The C2 kcat in data set [2] stood at 3.0 ± 2.2 s⁻¹.

B2: MASP-2γB: E. coli-expressed, refolded human MASP-2 CCP1-CCP2-SP fragment, Thr287 to Phe686, Ala-Ser-Met tag; purified form starts with Ile291 (protein)
chain 1: IHYTSTAQPCPYPMAPPNGHVSPVQAKYILKDSFSIFCETGYELLQGHLPLKSFTAVCQKDGSWDRPMPACSIVDCGPPDDLPSGRVEYITGPGVTTYKAVIQYSCEETFYTMKVNDGKYVCEADGFWTSSKGEKSLPVCEPVCGLSARTTGGR
chain 2: B1 chain 2
For the molecule B2, the C4 kcat in data set [1] was 0.9 ± 0.4 s⁻¹. The molecule further yielded a C2 kcat in data set [2] of 1.9 ± 0.8 s⁻¹. The “Ki values for the C1-inhibitor reaction, in words” value in data set [3] was “in the nanomolar range”. Also, the “k2, rate of irreversible enzyme-inhibitor complex formation with C1-inh” value in data set [3] (37° C., pH 7.4) worked out at 0.008 s⁻¹. Moreover, in data set [3] (37° C., pH 7.4, read-out: Ki, reaction with C1-inh), the Ki stood at 8.8 nM. Also, the “kobs, pseudo-first order rate of reaction with C1-inh” value in data set [3] ([C1-inh] = 350 nM, 37° C., pH 7.4) came to 0.0078 s⁻¹.

B3: MASP-2 SP: E. coli-expressed, refolded human MASP-2 serine protease domain, Ala-Ser-Met-Thr tag followed by Pro432, ending Phe686 (protein)
chain 1: ASMTPVCGLSARTTGGR
chain 2: B1 chain 2
In turn, B3 had a C4 kcat in data set [1] of 0.20 ± 0.06 s⁻¹. In data set [2], the C2 kcat is 3.9 ± 3.0 s⁻¹.

B4: CCP1-CCP2-SP: E. coli-expressed, refolded human C1r CCP1-CCP2-SP fragment, amino acids 309-705, N-terminal Ser-Thr-Gln-Ala (protein)
chain 1: STQACPQPKTLDEFTIIQNLQPQYQFRDYFIATCKQGYQLIEGNQVLHSFTAVCQDDGTWHRAMPRCKIKDCGQPRNLPNGDFRYTTTMGVNTYKARIQYYCHEPYYKMQTRAGSRESEQGVYTCTAQGIWKNEQKGEKIPRCLPVCGKPVNPVEQRQR
chain 2: IIGGQKAKMGNFPWQVFTNIHGRGGGALLGDRWILTAAHTLYPKEHEAQSNASLDVFLGHTNVEELMKLGNHPIRRVSVHPDYRQDESYNFEGDIALLELENSVTLGPNLLPICLPDNDTFYDLGLMGYVSGFGVMEEKIAHDLRFVRLPVANPQACENWLRGKNRMDVFSQNMFCAGHPSLKQDACQGDSGGVFAVRDPNTDRWVATGIVSWGIGCSRGYGFYTKVLNYVDWIKKEMEEED
Turning to B4, the “DSC melting / unfolding transition temperature” value in data set [4] turned out to be 57.5 °C. In addition, in data set [5], the “cleavage of 'dead' C3, in words” value is “no cleavages”. In data set [6], the “cleavage of 'live' C3, in words” value was “no cleavages”.

B5: CCP2-SP: E. coli-expressed, refolded human C1r CCP2-SP fragment, amino acids 376-705, N-terminal Ser-Thr-Gln-Ala (protein)
chain 1: STQACGQPRNLPNGDFRYTTTMGVNTYKARIQYYCHEPYYKMQTRAGSRESEQGVYTCTAQGIWKNEQKGEKIPRCLPVCGKPVNPVEQRQR
chain 2: B4 chain 2
On to B5, for which the “DSC melting / unfolding transition temperature” value in data set [4] is 55.4 °C.
